Measurements from the supplement of paper PMC10065799, “High-throughput profiling of sequence recognition by tyrosine kinases and SH2 domains using bacterial peptide display” (eLife, 2023).

target: Jak2 (UniProt O60674); assay: phosphorylation enrichment, bacterial display (enrichment ratio); higher = better substrate or ligand; peptides without Tyr show the background
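Throughout, for SH2 binding enrichment of the phosphorylated peptide, bacterial display: peptide library displayed on the E. coli surface as eCPX fusions, selected cells deep-sequenced, score is each peptide's frequency after selection divided by its frequency in the input.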
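Throughout, for phosphorylation enrichment, bacterial display: 11-residue human phosphosite peptides and single-mutation variants displayed on the E. coli surface, counted by deep sequencing, each peptide's frequency after selection divided by its frequency in the unselected input library; frequency after pTyr selection over input frequency; kinase dosed for 20-30% of maximal phosphorylation in three min.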

Jak2, sequence (O60674 whole entry, looked up, the tested form may be a part): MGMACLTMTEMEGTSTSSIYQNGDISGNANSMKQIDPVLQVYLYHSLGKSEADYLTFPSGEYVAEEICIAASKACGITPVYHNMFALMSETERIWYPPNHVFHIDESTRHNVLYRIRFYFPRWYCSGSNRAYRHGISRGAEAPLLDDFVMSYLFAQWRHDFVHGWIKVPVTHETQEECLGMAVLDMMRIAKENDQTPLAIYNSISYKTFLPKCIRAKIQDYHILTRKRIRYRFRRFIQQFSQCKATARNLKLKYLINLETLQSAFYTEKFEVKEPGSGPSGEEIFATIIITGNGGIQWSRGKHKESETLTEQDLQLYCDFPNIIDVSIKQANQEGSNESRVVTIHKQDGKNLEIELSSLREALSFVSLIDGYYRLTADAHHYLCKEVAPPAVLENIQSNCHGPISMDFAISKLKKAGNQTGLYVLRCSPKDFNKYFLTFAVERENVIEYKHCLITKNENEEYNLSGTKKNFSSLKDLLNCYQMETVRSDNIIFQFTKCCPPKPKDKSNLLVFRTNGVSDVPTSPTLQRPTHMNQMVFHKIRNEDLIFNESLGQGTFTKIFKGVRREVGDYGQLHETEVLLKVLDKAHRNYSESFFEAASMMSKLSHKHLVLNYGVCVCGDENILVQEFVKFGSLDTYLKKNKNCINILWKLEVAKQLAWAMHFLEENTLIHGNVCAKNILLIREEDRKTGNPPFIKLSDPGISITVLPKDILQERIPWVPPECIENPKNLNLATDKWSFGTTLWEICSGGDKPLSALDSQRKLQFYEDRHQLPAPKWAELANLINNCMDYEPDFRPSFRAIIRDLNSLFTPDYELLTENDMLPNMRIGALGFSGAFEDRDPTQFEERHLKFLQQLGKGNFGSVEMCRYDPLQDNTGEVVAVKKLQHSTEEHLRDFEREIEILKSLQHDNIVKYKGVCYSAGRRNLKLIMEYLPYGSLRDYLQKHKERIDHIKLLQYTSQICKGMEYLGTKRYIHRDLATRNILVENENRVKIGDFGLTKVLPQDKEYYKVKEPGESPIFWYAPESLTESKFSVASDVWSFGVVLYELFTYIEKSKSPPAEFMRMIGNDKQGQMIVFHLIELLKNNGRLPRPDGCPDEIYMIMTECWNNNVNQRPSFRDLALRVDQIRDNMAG

Row | Sequence | phosphorylation enrichment
1 | PVQAAYRKVVA [HBB_Y131_Q132R] | 0.336
2 | GTVRDYPDFNP [ANXA3_Y15_S19N] | 0.9
3 | LAIEWYVVVCK [RHO_Y136_R135W] | 1.88
4 | IHETTYNSIMK [ACTA1_Y281] | 0.477
5 | VIKDKYPQARF [APTX_Y209_K211Q_YF] | 0.553
6 | ERQIRYLNHQL [CEP152_Y268] | 0.413
7 | HLSPEYKQNEI [GJB1_Y243_R238H] | 0.874
8 | FDDIAHIRKTL [PIK3CA_Y1021_Y1021H] | 0.854
9 | SIKDKYVTAVF [KCNH2_Y611_L615V_YF] | 0.839
10 | KNKLNYTLPQD [NRAP_Y523] | 0.567
11 | DVCKKYAEAKD [ALB_Y343_N342K] | 0.897
12 | GSLEDYVRETN [GIMAP6_Y176] | 0.724
13 | KKHIPYRQHKS [CSNK1G2_Y206_E208Q] | 4.52
14 | RPYVYYYSYLL [PTEN_Y177_R173P] | 2.84
15 | PVKDGYQMAQP [CSF1R_Y873_L868P] | 0.521
16 | KNITEYCRHLI [RECQL_Y492_D495H] | 0.88
17 | RPSELYYSKIS [SMG1_Y2253_G2258S] | 1.05

Row | Sequence | phosphorylation enrichment
18 | FSGDFYRIQGR [DDR2_Y741_YF] | 0.944
19 | NTCNRYCRDEI [ITGB3_Y660] | 0.714
20 | LTDTVYSSSSA [OR4C12_Y71_I67T] | 1.09
21 | AEEKEYHAEGG [EGFR_Y869] | 0.908
22 | SIKDKYVTVLY [KCNH2_Y611_A614V] | 0.696
23 | DPASAYADEVK [ETNPPL_Y189_S185P] | 1.06
24 | PTTKTYFRHFD [HBA1_Y43_P45R] | 0.959
25 | LLNAIYLSAKR [SERPING1_Y294_W299R] | 1.65
26 | TENAGYYFRVS | 3.16
27 | GSRGKYSSGFH [ATM_Y332_R337H] | 0.439
28 | HILQLYRCREE [ALPK3_Y342_T338I] | 0.709
29 | RPSELYFSKIG [SMG1_Y2253_YF] | 0.51
30 | KVMANYMYKAG [MAML2_Y513] | 0.49
31 | KPAFSYTSSST [SIM1_Y356] | 0.528
32 | EERKTYVNTML [TEK_Y1102_T1106M] | 0.637
33 | DAAEDYAEGVR [DHODH_Y194] | 0.951

target: SHP2-C SH2; assay: SH2 binding enrichment of the phosphorylated peptide, bacterial display (enrichment ratio); higher = better substrate or ligand; peptides without Tyr show the background

Row | Sequence | SH2 binding enrichment
34 | PVQAAYRKVVA [HBB_Y131_Q132R] | 0.597
35 | GTVRDYPDFNP [ANXA3_Y15_S19N] | 0.609
36 | LAIEWYVVVCK [RHO_Y136_R135W] | 0.583
37 | IHETTYNSIMK [ACTA1_Y281] | 1.68
38 | VIKDKYPQARF [APTX_Y209_K211Q_YF] | 1.02
39 | ERQIRYLNHQL [CEP152_Y268] | 0.683
40 | HLSPEYKQNEI [GJB1_Y243_R238H] | 0.683
41 | FDDIAHIRKTL [PIK3CA_Y1021_Y1021H] | 0.566
42 | SIKDKYVTAVF [KCNH2_Y611_L615V_YF] | 0.658
43 | KNKLNYTLPQD [NRAP_Y523] | 0.834
44 | DVCKKYAEAKD [ALB_Y343_N342K] | 0.431
45 | GSLEDYVRETN [GIMAP6_Y176] | 0.656
46 | KKHIPYRQHKS [CSNK1G2_Y206_E208Q] | 1.84
47 | RPYVYYYSYLL [PTEN_Y177_R173P] | 1.12
48 | PVKDGYQMAQP [CSF1R_Y873_L868P] | 0.673
49 | KNITEYCRHLI [RECQL_Y492_D495H] | 0.773
50 | RPSELYYSKIS [SMG1_Y2253_G2258S] | 2.51

Row | Sequence | SH2 binding enrichment
51 | FSGDFYRIQGR [DDR2_Y741_YF] | 0.594
52 | NTCNRYCRDEI [ITGB3_Y660] | 0.658
53 | LTDTVYSSSSA [OR4C12_Y71_I67T] | 0.899
54 | AEEKEYHAEGG [EGFR_Y869] | 0.748
55 | SIKDKYVTVLY [KCNH2_Y611_A614V] | 2.27
56 | DPASAYADEVK [ETNPPL_Y189_S185P] | 0.462
57 | PTTKTYFRHFD [HBA1_Y43_P45R] | 1.08
58 | LLNAIYLSAKR [SERPING1_Y294_W299R] | 1.59
59 | TENAGYYFRVS | 0.897
60 | GSRGKYSSGFH [ATM_Y332_R337H] | 0.649
61 | HILQLYRCREE [ALPK3_Y342_T338I] | 0.748
62 | RPSELYFSKIG [SMG1_Y2253_YF] | 0.919
63 | KVMANYMYKAG [MAML2_Y513] | 1.06
64 | KPAFSYTSSST [SIM1_Y356] | 0.715
65 | EERKTYVNTML [TEK_Y1102_T1106M] | 0.606
66 | DAAEDYAEGVR [DHODH_Y194] | 0.63

target: Grb2 SH2 (UniProt P62993); assay: as above
Sequence (P62993 whole entry, looked up): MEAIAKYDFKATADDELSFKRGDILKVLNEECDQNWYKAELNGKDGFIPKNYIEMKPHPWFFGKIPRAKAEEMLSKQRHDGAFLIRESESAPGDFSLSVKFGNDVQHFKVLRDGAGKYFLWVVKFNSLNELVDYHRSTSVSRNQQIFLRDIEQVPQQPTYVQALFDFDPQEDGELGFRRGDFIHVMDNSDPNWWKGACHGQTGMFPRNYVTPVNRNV

Row | Sequence | SH2 binding enrichment
67 | PVQAAYRKVVA [HBB_Y131_Q132R] | 0.859
68 | GTVRDYPDFNP [ANXA3_Y15_S19N] | 0.874
69 | LAIEWYVVVCK [RHO_Y136_R135W] | 1.05
70 | IHETTYNSIMK [ACTA1_Y281] | 0.862
71 | VIKDKYPQARF [APTX_Y209_K211Q_YF] | 1.06
72 | ERQIRYLNHQL [CEP152_Y268] | 0.842
73 | HLSPEYKQNEI [GJB1_Y243_R238H] | 0.905
74 | FDDIAHIRKTL [PIK3CA_Y1021_Y1021H] | 0.805
75 | SIKDKYVTAVF [KCNH2_Y611_L615V_YF] | 0.82
76 | KNKLNYTLPQD [NRAP_Y523] | 0.944
77 | DVCKKYAEAKD [ALB_Y343_N342K] | 0.757
78 | GSLEDYVRETN [GIMAP6_Y176] | 0.785
79 | KKHIPYRQHKS [CSNK1G2_Y206_E208Q] | 2.07
80 | RPYVYYYSYLL [PTEN_Y177_R173P] | 0.841
81 | PVKDGYQMAQP [CSF1R_Y873_L868P] | 0.838
82 | KNITEYCRHLI [RECQL_Y492_D495H] | 0.812
83 | RPSELYYSKIS [SMG1_Y2253_G2258S] | 1.06

Row | Sequence | SH2 binding enrichment
84 | FSGDFYRIQGR [DDR2_Y741_YF] | 0.786
85 | NTCNRYCRDEI [ITGB3_Y660] | 0.938
86 | LTDTVYSSSSA [OR4C12_Y71_I67T] | 1.07
87 | AEEKEYHAEGG [EGFR_Y869] | 0.924
88 | SIKDKYVTVLY [KCNH2_Y611_A614V] | 0.99
89 | DPASAYADEVK [ETNPPL_Y189_S185P] | 0.941
90 | PTTKTYFRHFD [HBA1_Y43_P45R] | 0.964
91 | LLNAIYLSAKR [SERPING1_Y294_W299R] | 1.64
92 | TENAGYYFRVS | 0.878
93 | GSRGKYSSGFH [ATM_Y332_R337H] | 1.04
94 | HILQLYRCREE [ALPK3_Y342_T338I] | 0.729
95 | RPSELYFSKIG [SMG1_Y2253_YF] | 1.04
96 | KVMANYMYKAG [MAML2_Y513] | 1.16
97 | KPAFSYTSSST [SIM1_Y356] | 0.944
98 | EERKTYVNTML [TEK_Y1102_T1106M] | 12.9
99 | DAAEDYAEGVR [DHODH_Y194] | 0.937

target: c-Src SH2; assay: as above

Row | Sequence | SH2 binding enrichment
100 | PVQAAYRKVVA [HBB_Y131_Q132R] | 0.493
101 | GTVRDYPDFNP [ANXA3_Y15_S19N] | 0.536
102 | LAIEWYVVVCK [RHO_Y136_R135W] | 0.5
103 | IHETTYNSIMK [ACTA1_Y281] | 1.93
104 | VIKDKYPQARF [APTX_Y209_K211Q_YF] | 0.562
105 | ERQIRYLNHQL [CEP152_Y268] | 0.512
106 | HLSPEYKQNEI [GJB1_Y243_R238H] | 0.611
107 | FDDIAHIRKTL [PIK3CA_Y1021_Y1021H] | 0.435
108 | SIKDKYVTAVF [KCNH2_Y611_L615V_YF] | 0.538
109 | KNKLNYTLPQD [NRAP_Y523] | 0.648
110 | DVCKKYAEAKD [ALB_Y343_N342K] | 0.562
111 | GSLEDYVRETN [GIMAP6_Y176] | 0.541
112 | KKHIPYRQHKS [CSNK1G2_Y206_E208Q] | 1.79
113 | RPYVYYYSYLL [PTEN_Y177_R173P] | 0.539
114 | PVKDGYQMAQP [CSF1R_Y873_L868P] | 0.527
115 | KNITEYCRHLI [RECQL_Y492_D495H] | 0.612
116 | RPSELYYSKIS [SMG1_Y2253_G2258S] | 5.74

Row | Sequence | SH2 binding enrichment
117 | FSGDFYRIQGR [DDR2_Y741_YF] | 0.501
118 | NTCNRYCRDEI [ITGB3_Y660] | 0.808
119 | LTDTVYSSSSA [OR4C12_Y71_I67T] | 0.349
120 | AEEKEYHAEGG [EGFR_Y869] | 0.471
121 | SIKDKYVTVLY [KCNH2_Y611_A614V] | 1.06
122 | DPASAYADEVK [ETNPPL_Y189_S185P] | 0.671
123 | PTTKTYFRHFD [HBA1_Y43_P45R] | 0.457
124 | LLNAIYLSAKR [SERPING1_Y294_W299R] | 1.11
125 | TENAGYYFRVS | 0.547
126 | GSRGKYSSGFH [ATM_Y332_R337H] | 0.905
127 | HILQLYRCREE [ALPK3_Y342_T338I] | 0.546
128 | RPSELYFSKIG [SMG1_Y2253_YF] | 0.557
129 | KVMANYMYKAG [MAML2_Y513] | 0.849
130 | KPAFSYTSSST [SIM1_Y356] | 0.503
131 | EERKTYVNTML [TEK_Y1102_T1106M] | 0.661
132 | DAAEDYAEGVR [DHODH_Y194] | 0.701
